Assay results reported in paper PMC9512822, “Redβ177 annealase structure reveals details of oligomerization and λ Red-mediated homologous DNA recombination” (Nature Communications, 2022).

B1: Oligo 1 + Oligo 2 annealing intermediate (27mer) (dsDNA)
DNA 1: TGCAGCAGCTTTACCATCTGCCGCTGG
DNA 2: CCAGCGGCAGATGGTAAAGCTGCTGCA
B2: Redβ177-His6 (N-terminal residues 1-177 of the Redβ annealase of bacteriophage λ) (domain or fragment, bacteriophage lambda (phage λ), UniProt P03698 1-177, looked up)
chain: MSTALATLAGKLAERVGMDSVDPQELITTLRQTAFKGDASDAQFIALLIVANQYGLNPWTKEIYAFPDKQNGIVPVVGVDGWSRIINENQQFDGMDFEQDNESCTCRIYRKDRNHPICVTEWMDECRREPFKTREGREITGPWQSHPKRMLRHKAMIQCARLAFGFAGIYDKDEAER
notes: Redβ (Beta) annealase, product of the bet gene of bacteriophage lambda, UniProtKB P03698, N-terminal residues 1-177 (C-terminally truncated); The molecule forms a helical filament of no fixed number of subunits; Residues 3-169 were modelled, except 133-138; also called Redβ177-6xHis; Redβ N-terminal domain; not shown: His6, C-terminal, kept

Assays:
Redβ177 = biological target: T1, Redβ177 (Escherichia coli bacteriophage lambda, UniProt P03698 1-177); assay: cryo-EM structure (helical reconstruction, 3.3 Å); 5 mM MgCl2; Redβ177:Oligo 1:Oligo 2 7.7:1:1; 4 bp per monomer; base identity averaged, arbitrary sequence modelled; 20 mM KH2PO4 pH 6.0, 5 mM MgCl2; 30 min at room temperature with each oligo, then dialysis overnight at 4 °C; conditions: protein: recombinant; tags: C-terminal His6; blunt
T1 sequence: B2 chain

[1] = biological target: the molecule itself; assay: cryo-EM structure; purified Redβ177 incubated in turn with two complementary 27mer oligonucleotides (molar ratio 7.7:1:1) in 20 mM KH2PO4 pH 6.0, 5 mM MgCl2, room temperature, then dialysed overnight at 4 °C; helical reconstruction of the 1-start left-handed helix, 3.3 Å; a 2-start assembly was seen only in 2D classes

Binder | binding result (Redβ177) | binding result [1]
B1 | binds | 
B2 |  | binds
